IntAct's records for PubMed 29892012

B1: SOSS complex subunit C (Homo sapiens), Q9NRY2 (parent)
chain: MAANSSGQGFQNKNRVAILAELDKEKRKLLMQNQSSTNHPGASIALSRPSLNKDFRDHAEQQHIAAQQKAALQHAHAHSSGYFITQDSAFGNLILPVLPRLDPE
B2: Coiled-coil alpha-helical rod protein 1 (Homo sapiens), Q8TD31 (parent)
chain: MFPPSGSTGLIPPSHFQARPLSTLPRMAPTWLSDIPLVQPPGHQDVSERRLDTQRPQVTMWERDVSSDRQEPGRRGRSWGLEGSQALSQQAEVIVRQLQELRRLEEEVRLLRETSLQQKMRLEAQAMELEALARAEKAGRAEAEGLRAALAGAEVVRKNLEEGSQRELEEVQRLHQEQLSSLTQAHEEALSSLTSKAEGLEKSLSSLETRRAGEAKELAEAQREAELLRKQLSKTQEDLEAQVTLVENLRKYVGEQVPSEVHSQTWELERQKLLETMQHLQEDRDSLHATAELLQVRVQSLTHILALQEEELTRKVQPSDSLEPEFTRKCQSLLNRWREKVFALMVQLKAQELEHSDSVKQLKGQVASLQEKVTSQSQEQAILQRSLQDKAAEVEVERMGAKGLQLELSRAQEARRRWQQQTASAEEQLRLVVNAVSSSQIWLETTMAKVEGAAAQLPSLNNRLSYAVRKVHTIRGLIARKLALAQLRQESCPLPPPVTDVSLELQQLREERNRLDAELQLSARLIQQEVGRAREQGEAERQQLSKVAQQLEQELQQTQESLASLGLQLEVARQGQQESTEEAASLRQELTQQQELYGQALQEKVAEVETRLREQLSDTERRLNEARREHAKAVVSLRQIQRRAAQEKERSQELRRLQEEARKEEGQRLARRLQELERDKNLMLATLQQEGLLSRYKQQRLLTVLPSLLDKKKSVVSSPRPPECSASAPVAAAVPTRESIKGSLSVLLDDLQDLSEAISKEEAVCQGDNLDRCSSSNPQMSS
partner: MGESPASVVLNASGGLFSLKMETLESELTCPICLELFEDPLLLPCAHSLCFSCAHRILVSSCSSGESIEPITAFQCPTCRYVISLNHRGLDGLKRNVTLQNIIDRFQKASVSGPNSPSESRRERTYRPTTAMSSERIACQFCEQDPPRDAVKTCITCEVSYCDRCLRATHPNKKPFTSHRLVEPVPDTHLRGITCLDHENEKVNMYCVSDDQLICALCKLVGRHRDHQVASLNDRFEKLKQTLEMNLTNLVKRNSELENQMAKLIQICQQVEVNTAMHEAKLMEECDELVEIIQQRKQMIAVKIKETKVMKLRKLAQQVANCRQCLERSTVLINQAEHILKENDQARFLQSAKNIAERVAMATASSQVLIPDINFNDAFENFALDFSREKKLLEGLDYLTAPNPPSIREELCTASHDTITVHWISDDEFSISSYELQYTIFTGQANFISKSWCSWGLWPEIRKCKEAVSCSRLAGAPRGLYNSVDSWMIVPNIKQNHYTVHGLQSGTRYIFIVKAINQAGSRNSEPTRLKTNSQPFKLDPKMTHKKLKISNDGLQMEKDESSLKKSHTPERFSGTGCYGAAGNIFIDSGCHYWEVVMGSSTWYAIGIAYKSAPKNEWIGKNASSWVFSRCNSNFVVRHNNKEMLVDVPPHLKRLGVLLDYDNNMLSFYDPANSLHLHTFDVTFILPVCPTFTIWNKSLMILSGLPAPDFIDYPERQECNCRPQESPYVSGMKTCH
B3: Myotubularin-related protein 9 (Homo sapiens), Q96QG7 (parent)
chain: MEFAELIKTPRVDNVVLHRPFYPAVEGTLCLTGHHLILSSRQDNTEELWLLHSNIDAIDKRFVGSLGTIIIKCKDFRIIQLDIPGMEECLNIASSIEALSTLDSITLMYPFFYRPMFEVIEDGWHSFLPEQEFELYSSATSEWRLSYVNKEFAVCPSYPPIVTVPKSIDDEALRKVATFRHGGRFPVLSYYHKKNGMVIMRSGQPLTGTNGRRCKEDEKLINATLRAGKRGYIIDTRSLNVAQQTRAKGGGFEQEAHYPQWRRIHKSIERYHILQESLIKLVEACNDQTHNMDRWLSKLEASNWLTHIKEILTTACLAAQCIDREGASILIHGTEGTDSTLQVTSLAQIILEPRSRTIRGFEALIEREWLQAGHPFQQRCAQSAYCNTKQKWEAPVFLLFLDCVWQILRQFPCSFEFNENFLIMLFEHAYASQFGTFLGNNESERCKLKLQQKTMSLWSWVNQPSELSKFTNPLFEANNLVIWPSVAPQSLPLWEGIFLRWNRSSKYLDEAYEEMVNIIEYNKELQAKVNILRRQLAELETEDGMQESP
partner: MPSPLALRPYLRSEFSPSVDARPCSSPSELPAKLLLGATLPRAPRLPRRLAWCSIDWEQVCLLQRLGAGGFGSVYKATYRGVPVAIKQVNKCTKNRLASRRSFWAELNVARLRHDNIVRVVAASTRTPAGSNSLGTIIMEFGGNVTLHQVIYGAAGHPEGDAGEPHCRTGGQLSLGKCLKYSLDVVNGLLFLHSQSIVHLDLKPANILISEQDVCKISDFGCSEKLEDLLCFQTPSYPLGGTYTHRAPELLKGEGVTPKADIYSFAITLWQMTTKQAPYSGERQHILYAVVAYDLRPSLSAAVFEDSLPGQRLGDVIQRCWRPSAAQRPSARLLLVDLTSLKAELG
B4: Multifunctional procollagen lysine hydroxylase and glycosyltransferase LH3 (Homo sapiens), O60568 (parent)
chain: MTSSGPGPRFLLLLPLLLPPAASASDRPRGRDPVNPEKLLVITVATAETEGYLRFLRSAEFFNYTVRTLGLGEEWRGGDVARTVGGGQKVRWLKKEMEKYADREDMIIMFVDSYDVILAGSPTELLKKFVQSGSRLLFSAESFCWPEWGLAEQYPEVGTGKRFLNSGGFIGFATTIHQIVRQWKYKDDDDDQLFYTRLYLDPGLREKLSLNLDHKSRIFQNLNGALDEVVLKFDRNRVRIRNVAYDTLPIVVHGNGPTKLQLNYLGNYVPNGWTPEGGCGFCNQDRRTLPGGQPPPRVFLAVFVEQPTPFLPRFLQRLLLLDYPPDRVTLFLHNNEVFHEPHIADSWPQLQDHFSAVKLVGPEEALSPGEARDMAMDLCRQDPECEFYFSLDADAVLTNLQTLRILIEENRKVIAPMLSRHGKLWSNFWGALSPDEYYARSEDYVELVQRKRVGVWNVPYISQAYVIRGDTLRMELPQRDVFSGSDTDPDMAFCKSFRDKGIFLHLSNQHEFGRLLATSRYDTEHLHPDLWQIFDNPVDWKEQYIHENYSRALEGEGIVEQPCPDVYWFPLLSEQMCDELVAEMEHYGQWSGGRHEDSRLAGGYENVPTVDIHMKQVGYEDQWLQLLRTYVGPMTESLFPGYHTKARAVMNFVVRYRPDEQPSLRPHHDSSTFTLNVALNHKGLDYEGGGCRFLRYDCVISSPRKGWALLHPGRLTHYHEGLPTTWGTRYIMVSFVDP
partner: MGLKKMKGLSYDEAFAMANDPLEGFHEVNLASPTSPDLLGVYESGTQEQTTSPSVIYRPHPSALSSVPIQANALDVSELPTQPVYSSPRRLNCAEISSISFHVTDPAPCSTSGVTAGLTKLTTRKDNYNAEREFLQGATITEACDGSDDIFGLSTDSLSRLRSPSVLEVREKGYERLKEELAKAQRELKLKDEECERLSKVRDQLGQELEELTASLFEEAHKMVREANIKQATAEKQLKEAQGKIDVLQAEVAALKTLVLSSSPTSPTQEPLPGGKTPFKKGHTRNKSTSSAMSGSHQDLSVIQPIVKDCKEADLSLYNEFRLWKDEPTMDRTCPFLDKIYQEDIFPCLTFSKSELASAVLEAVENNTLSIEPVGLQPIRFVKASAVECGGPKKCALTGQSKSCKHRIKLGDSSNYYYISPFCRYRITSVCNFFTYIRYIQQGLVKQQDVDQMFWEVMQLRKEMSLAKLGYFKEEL
B5: Coiled-coil domain-containing protein 120 (Homo sapiens), Q96HB5-4 (parent)
chain: MRREPRYQGQVGPDIHTDSERTLSSHQPRPLDSTKMEVKGQLISSPTFNAPAALFGEAAPQVKSERLRGLLDRQRTLQEALSLKLQELRKVCLQEAELTGQLPPECPLEPGERPQLVRRRPPTARAYPPPHPNQAHHSLCPAEELALEALEREVSVQQQIAAAARRLALAPDLSTEQRRRRRQVQADALRRLHELEEQLRDVRARLGLPVLPLPQPLPLSTGSVITTQGVCLGMRLAQLSQEDVVLHSESSSLSESGASHDNEEPHGCFSLAERPSPPKAWDQLRAVSGGSPERRTPWKPPPSDLYGDLKSRRNSVASPTSPTRSLPRSASSFEGRSVPATPVLTRGAGPQLCKPEGLHSRQWSGSQDSQMGFPRADPASDRASLFVARTRRSNSSEALLVDRAAGGGAGSPPAPLAPSASGPPVCKSSEVLYERPQPTPAFSSRTAGPPDPPRAARPSSAAPASRGAPRLPPVCGDFLLDYSLDRGLPRSGGGTGWGELPPAAEVPGPLSRRDGLLTMLPGPPPVYAADSNSPLLRTKDPHTRATRTKPCGLPPEAAEGPEVHPNPLLWMPPPTRIPSAGERSGHKNLALEGLRDWYIRNSGLAAGPQRRPVLPSVGPPHPPFLHARCYEVGQALYGAPSQAPLPHSRSFTAPPVSGRYYADFLYPPELSARLSDLTLEGEQSSSSDTQTPGTLV
partner: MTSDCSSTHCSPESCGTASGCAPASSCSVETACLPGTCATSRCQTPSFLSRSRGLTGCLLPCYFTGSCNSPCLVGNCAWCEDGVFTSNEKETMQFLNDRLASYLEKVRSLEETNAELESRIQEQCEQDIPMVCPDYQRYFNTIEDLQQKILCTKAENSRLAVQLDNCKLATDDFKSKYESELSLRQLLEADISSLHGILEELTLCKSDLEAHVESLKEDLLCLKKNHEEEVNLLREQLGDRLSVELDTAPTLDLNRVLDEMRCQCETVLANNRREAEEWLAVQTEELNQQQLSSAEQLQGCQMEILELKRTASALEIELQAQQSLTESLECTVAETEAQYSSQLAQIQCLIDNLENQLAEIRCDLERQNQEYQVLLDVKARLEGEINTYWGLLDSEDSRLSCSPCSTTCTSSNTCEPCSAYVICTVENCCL

Variants of: B1
Conditions: with rbpms_human RBPMS

| Variant | effect of a mutation on the interaction |
| --- | --- |
| K28T | with no effect |

Variants of: B2
Conditions: with trim1_human MID2, Q9UJV3

| Variant | effect of a mutation on the interaction |
| --- | --- |
| W337R | disrupting interaction strength |

Variants of: B3
Conditions: with mos_human MOS

| Variant | effect of a mutation on the interaction |
| --- | --- |
| R359S | with no effect |

Variants of: B4
Conditions: with rab3i_human RAB3IP

| Variant | effect of a mutation on the interaction |
| --- | --- |
| R235Q | with no effect |

Variants of: B5
Conditions: with KRT40, Q6A162

| Variant | effect of a mutation on the interaction |
| --- | --- |
| R346W | with no effect |
